Positions of bridges follow the written chain, without caps; N, C: chain ends. Non-standard residues stand in square brackets, D forms with d. No end group written: not given here. 1Nal = N[C@@H](Cc1cccc2ccccc12)C(=O)O; Nle = CCCC[C@H](N)C(=O)O
T1: IGFBP-1 (UniProt P08833 26-259)
T1 construct: in kinetics immobilised on a CM chip by EDC/NHS; biotinylated in the phage selection
T1 sequence (looked up): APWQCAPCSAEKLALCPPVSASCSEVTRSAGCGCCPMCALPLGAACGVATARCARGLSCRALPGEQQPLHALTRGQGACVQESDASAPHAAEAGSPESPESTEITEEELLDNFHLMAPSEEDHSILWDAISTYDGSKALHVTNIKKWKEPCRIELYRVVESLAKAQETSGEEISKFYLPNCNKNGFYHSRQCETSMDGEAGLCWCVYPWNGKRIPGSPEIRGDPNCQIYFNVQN


molecular target: T1, IGFBP-1; assay: BIAcore inhibition of IGFBP-1 binding to IGF-I

Row | Fold potency reduction IC50(mut)/IC50(bp1-16) [fold] | Binder
1 | 3.3 | CRAGPLQRLCEKYF (disulfide 1-10, also called W8R variant of bp1-16) [bp1-22]
2 | 4.8 | CRAGPLQ[1Nal]LCEKYF (disulfide 1-10, also called W8(Nal(1)) variant of bp1-16) [bp1-23]

molecular target: T1, IGFBP-1; assay: BIAcore inhibition of the interaction of IGFBP-1 with IGF-1
Experimental: Peptides were assayed in a BIAcore1 assay as described in WO 98/45427, supra.

Row | Fold potency reduction vs bp1-01 [fold] | Binder
3 | 40 | Ac-CRAGPLQELCEKYAE (disulfide 1-10 (inferred); linker 8-15 via 1,5‑diaminopentane, W8 and G15 replaced by the cross-linking Glu residues, F14 replaced by Ala; also called locked-helix variant of bp1-01) [(i+7)A]
4 | 7.7 | Ac-RAGPLEWLAEKYEG (linker 6-13 via 1,5‑diaminopentane, also called locked-helix variant of bp1-01) [(i+7)D]
5 | > 360 | Ac-LEWLAEKYEG (linker 2-9 via 1,5‑diaminopentane, also called locked-helix variant of bp1-01) [(i+7)B]
6 | 20 | Ac-PLEWLAEKYEG (linker 3-10 via 1,5‑diaminopentane, also called locked-helix variant of bp1-01) [(i+7)C]
7 | 7.7 | Ac-RPLEWLAEKYFE (linker 4-12 via 1,5‑diaminopentane, also called locked-helix variant of bp1-01) [(i+8)B]
8 | 5.9 | Ac-RAGPLEWLAEKYFE (linker 6-14 via 1,5‑diaminopentane, also called locked-helix variant of bp1-01) [(i+8)C]

molecular target: T1, IGFBP-1; assay: ELISA inhibition of IGFBP-1 binding to IGF-I

Row | Binder | Fold potency reduction IC50(mut)/IC50(bp1-16) [fold]
9 | CRAGPLQHLCEKYF (disulfide 1-10, also called W8H variant of bp1-16) [bp1-24] | 7.5
10 | CRAAPLQWLCEKYF (disulfide 1-10, also called G4A variant of bp1-16) [bp1-29] | 50
11 | CRAGPLQWRCEKYF (disulfide 1-10, also called L9R variant of bp1-16) [bp1-26] | > 570

Second part, the binder after the results:

Row | Fold potency reduction IC50(mut)/IC50(bp1-16) [fold] | Binder
12 | 1.7 | CRAGPLQW[Nle]CEKYF (disulfide 1-10, also called L9(Nle) variant of bp1-16) [bp1-37]
13 | 3.1 | CRAGNLQWLCEKYF (disulfide 1-10, also called P5N variant of bp1-16) [bp1-34]
14 | 1.5 | CRAGALQWLCEKYF (disulfide 1-10, also called P5A variant of bp1-16) [bp1-30]
15 | 2 | CRAGRLQWLCEKYF (disulfide 1-10, also called P5R variant of bp1-16) [bp1-31]
16 | > 1000 | CRAGPRQWLCEKYF (disulfide 1-10, also called L6R variant of bp1-16) [bp1-32]
17 | 6.9 | CRAGP[Nle]QWLCEKYF (disulfide 1-10, also called L6(Nle) variant of bp1-16) [bp1-36]

molecular target: T1, IGFBP-1; assay: ELISA or BIAcore inhibition of IGFBP-1 binding to IGF-I; reference peptide

Row | Fold potency reduction IC50(mut)/IC50(bp1-16) [fold] | Binder
18 | 1 | CRAGPLQWLCEKYF (disulfide 1-10, Synthetic peptide) [bp1-16]

molecular target: T1, IGFBP-1; assay: BIAcore inhibition of the interaction of IGFBP-1 with IGF-1; reference peptide

Row | Fold potency reduction IC50(bp1-01)/IC50(mut) [fold] | Binder
19 | 1 | CRAGPLQWLCEKYFG (disulfide 1-10) [bp1-01]

molecular target: T1, IGFBP-1; assay: BIAcore inhibition assay, 9-10 nM IGFBP-1, immobilized IGF-1

Row | fold improved potency over bp1-01 [fold] | Binder
20 | ~20 | GQQSCAAGPLQWLCEHYFSTYGR (disulfide 5-14, bp1-40 with R2A, K12H and an added C-terminal GlyArg) [bp1-625]

Source: patent US6420518
